Measured values from patent US20220372147A1 (UNIVERSIT T STUTTGART, published 2022).

Experiments:
[1] = biological target: T1, HER3 on HER3-expressing cancer cells (LIM1215, BT474) (UniProt P21860 20-1342, limits assumed); assay: cell-based or functional assay
[2] = biological target: T1, HER3 on HER3-expressing cancer cells …; assay: flow cytometry on HER3-expressing BT474 cells, PE anti-human Fc
[3] = biological target: T1, HER3 on HER3-expressing cancer cells …; assay: flow cytometry on HER3-expressing LIM1215 cells, PE anti-human Fc
[4] = biological target: T2, CD3 on CD3-expressing Jurkat cells (human, UniProt P07766 23-207); assay: flow cytometry on CD3-expressing Jurkat cells, PE anti-human Fc
T2 construct: whole, on cells
T2 sequence (P07766 23-207): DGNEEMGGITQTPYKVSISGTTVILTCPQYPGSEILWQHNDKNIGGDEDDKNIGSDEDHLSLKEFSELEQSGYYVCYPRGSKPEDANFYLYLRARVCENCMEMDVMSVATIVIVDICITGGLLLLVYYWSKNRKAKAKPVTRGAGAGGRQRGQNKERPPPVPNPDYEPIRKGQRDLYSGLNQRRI

[5] = biological target: T3, His-tagged HER3 protein, extracellular domain (ECD) of HER3 (aa 21-643) (UniProt P21860 21-643); assay: ELISA, immobilized HER3-His, anti-human Fc-HRP detection
T3 construct: range 21-643; also called HER3-His; not shown: His-tag

[6] = biological target: T4, MET Fc fusion protein, extracellular domain (ECD) of MET (aa 25-787) (UniProt P08581 25-787); assay: ELISA, immobilized MET-Fc, anti-human Fab-HRP detection
T4 construct: range 25-787; not shown: Fc part
T4 sequence (P08581 25-787 limits assumed): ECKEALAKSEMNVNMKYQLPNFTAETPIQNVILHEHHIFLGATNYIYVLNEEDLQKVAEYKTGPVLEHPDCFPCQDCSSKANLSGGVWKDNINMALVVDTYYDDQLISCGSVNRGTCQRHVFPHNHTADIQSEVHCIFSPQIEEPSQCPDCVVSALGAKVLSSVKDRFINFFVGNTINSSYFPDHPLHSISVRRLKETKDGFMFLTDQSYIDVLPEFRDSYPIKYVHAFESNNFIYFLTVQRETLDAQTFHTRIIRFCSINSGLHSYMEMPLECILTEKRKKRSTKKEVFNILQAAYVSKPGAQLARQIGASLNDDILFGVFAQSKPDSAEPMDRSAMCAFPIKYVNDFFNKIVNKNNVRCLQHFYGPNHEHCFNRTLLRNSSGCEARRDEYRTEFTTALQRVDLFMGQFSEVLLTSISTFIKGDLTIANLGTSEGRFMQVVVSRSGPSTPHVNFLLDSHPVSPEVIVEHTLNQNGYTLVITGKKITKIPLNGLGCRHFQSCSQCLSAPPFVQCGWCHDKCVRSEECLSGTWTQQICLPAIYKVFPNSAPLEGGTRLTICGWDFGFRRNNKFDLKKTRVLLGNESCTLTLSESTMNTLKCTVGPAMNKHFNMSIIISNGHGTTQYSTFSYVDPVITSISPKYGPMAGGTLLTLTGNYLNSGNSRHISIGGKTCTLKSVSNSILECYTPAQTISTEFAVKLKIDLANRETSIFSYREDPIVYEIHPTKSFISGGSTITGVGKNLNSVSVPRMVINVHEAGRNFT

[7] = biological target: T5, HER3-Fc fusion protein, extracellular domain (ECD) of HER3 (aa 21-643) fused to an Fc part (UniProt P21860 21-643); assay: ELISA, immobilized HER3-Fc, anti-His-HRP detection
T5 construct: range 21-643; not shown: Fc part

B1: bispecific, trivalent eIg-Fab4 targeting HER3 and CD3 (bispecific antibody)
light 1: QAGLTQPPAVSVAPGQTASITCGRDNIGSRSVHWYQQKPGQAPVLVVYDDSDRPAGIPERFSGSNYENTATLTISRVEAGDEADYYCQVWGITSDHVVFGGGTKLTVLGQPKAAPSVTLFPPSSEELQANKATLVCLISDFYPGAVTVAWKADSSPVKAGVETTTPSKQSNNKYAASSYLSLTPEQWKSHRSYSCQVTHEGSTVEKTVAPTECS
heavy 1: not shown
light 2: not shown
heavy 2: QVQLQQSGPGLVKPSQTLSLTCAISGDSVSSNRAAWNWIRQSPSRGLEWLGRTYYRSKWYNDYAQSLKSRITINPDTPKNQFSLQLNSVTPEDTAVYYCARDGQLGLDALDIWGQGTMVTVSSASTKGPSVFPLAPSSKSTSGGTAALGCLVKDYFPEPVTVSWNSGALTSGVHTFPAVLQSSGLYSLSSVVTVPSSSLGTQTYICNVNHKPSNTKVDKKVEPKSCGGSGGGGSGGQVQLVQSGAEVKKPGSSVKVSCKASGGTFSGYTMNWVRQAPGQGLEWMGLINPYKGVSTYNGKFKDRVTITADKSTSTAYMELSSLRSEDTAVYYCARSGYYGDSDWYFDVWGQGTLVTVSSDFTPPTVKILQSSCDGGGHFPPTIQLLCLVSGYTPGTINITWLEDGQVMDVDLSTASTTQEGELASTQSELTLSQKHWLSDRTYTCQVTYQGHTFEDSTKKSADSNGTDKTHTCPPCPAPPVAGPSVFLFPPKPKDTLMISRTPEVTCVVVDVSHEDPEVKFNWYVDGVEVHNAKTKPREEQYNSTYRVVSVLTVLHQDWLNGKEYKCKVSNKGLPSSIEKTISKAKGQPREPQVCTLPPSRDELTKNQVSLSCAVKGFYPSDIAVEWESNGQPENNYKTTPPVLDSDGSFFLVSKLTVDKSRWQQGNVFSCSVMHEALHNHYTQKSLSLSPGK
- EC50 value in cell killing (PBMC-mediated cytotoxicity on BT-474 cells, crystal violet) [1]: 0.2 nM
- EC50 value in cell killing (PBMC-mediated cytotoxicity on LIM1215 cells, crystal violet) [1]: 0.1 nM
- EC50 [2]: 0.6 nM
- EC50 [3]: 0.21 nM
- EC50 [4]: 5.9 nM

B2: bispecific bivalent anti-cMET x anti-HER3 eIgG1 (EHD2 configuration HC1-LC2) (bispecific antibody)
light 1: QAGLTQPPAVSVAPGQTASITCGRDNIGSRSVHWYQQKPGQAPVLVVYDDSDRPAGIPERFSGSNYENTATLTISRVEAGDEADYYCQVWGITSDHVVFGGGTKLTVLGQPKAAPSVTLFPPSSEELQANKATLVCLISDFYPGAVTVAWKADSSPVKAGVETTTPSKQSNNKYAASSYLSLTPEQWKSHRSYSCQVTHEGSTVEKTVAPTECS
heavy 1: not shown
heavy 2: not shown
light 2: DIQMTQSPSSLSASVGDRVTITCKSSQSLLYTSSQKNYLAWYQQKPGKAPKLLIYWASTRESGVPSRFSGSGSGTDFTLTISSLQPEDFATYYCQQYYAYPWTFGQGTKVEIKRTDFTPPTVKILQSSCDGGGHFPPTIQLLCLVSGYTPGTINITWLEDGQVMDVDLSTASTTQEGELASTQSELTLSQKHWLSDRTYTCQVTYQGHTFEDSTKKSADSN
notes: Four different polypeptide chains, knob-into-hole Fc
- EC50 [5]: 1 nM
- EC50 [6]: 3.8 nM

B3: bispecific, trivalent eIg-Fab2 targeting HER3 and CD3 (bispecific antibody)
light 1: QAGLTQPPAVSVAPGQTASITCGRDNIGSRSVHWYQQKPGQAPVLVVYDDSDRPAGIPERFSGSNYENTATLTISRVEAGDEADYYCQVWGITSDHVVFGGGTKLTVLGQPKAAPSVTLFPPSSEELQANKATLVCLISDFYPGAVTVAWKADSSPVKAGVETTTPSKQSNNKYAASSYLSLTPEQWKSHRSYSCQVTHEGSTVEKTVAPTECS
light 2: not shown
heavy 1: not shown
heavy 2: not shown
- EC50 [2]: 1.7 nM
- EC50 [3]: 1.3 nM
- EC50 [4]: 0.2 nM

B4: bispecific bivalent anti-cMET x anti-HER3 eIgG2 (EHD2 configuration HC2-LC1) (bispecific antibody)
light 1: QAGLTQPPAVSVAPGQTASITCGRDNIGSRSVHWYQQKPGQAPVLVVYDDSDRPAGIPERFSGSNYENTATLTISRVEAGDEADYYCQVWGITSDHVVFGGGTKLTVLGQPKAAPSVTLFPPSSEELQANKATLVCLISDFYPGAVTVAWKADSSPVKAGVETTTPSKQSNNKYAASSYLSLTPEQWKSHRSYSCQVTHEGSTVEKTVAPTECS
heavy 1: not shown
heavy 2: not shown
light 2: DIQMTQSPSSLSASVGDRVTITCKSSQSLLYTSSQKNYLAWYQQKPGKAPKLLIYWASTRESGVPSRFSGSGSGTDFTLTISSLQPEDFATYYCQQYYAYPWTFGQGTKVEIKRTDFTPPTVKILQSSSDGGGHFPPTIQLLCLVSGYTPGTIQITWLEDGQVMDVDLSTASTTQEGELASTQSELTLSQKHWLSDRTYTCQVTYQGHTFEDSTKKCADSN
notes: as for B2
- EC50 [5]: 1.4 nM
- EC50 [6]: 5.4 nM

B5: Fv3-43-hetEHD2 eFab molecule 8 (C102T Fd; C14T,N39Q light chain) (Fab, V domains shown)
VH: QVQLQQSGPGLVKPSQTLSLTCAISGDSVSSNRAAWNWIRQSPSRGLEWLGRTYYRSKWYNDYAQSLKSRITINPDTPKNQFSLQLNSVTPEDTAVYYCARDGQLGLDALDIWGQGTMVTVSS
VL: QAGLTQPPAVSVAPGQTASITCGRDNIGSRSVHWYQQKPGQAPVLVVYDDSDRPAGIPERFSGSNYENTATLTISRVEAGDEADYYCQVWGITSDHVVFGGGTKLTVLD
notes: Monovalent anti-HER3 Fab-like molecule; His-tag on the Fd chain
- EC50 [7]: 6.2 nM

B6: bivalent and monospecific eIg molecule targeting HER3 (antibody, V domains shown)
VH: QVQLQQSGPGLVKPSQTLSLTCAISGDSVSSNRAAWNWIRQSPSRGLEWLGRTYYRSKWYNDYAQSLKSRITINPDTPKNQFSLQLNSVTPEDTAVYYCARDGQLGLDALDIWGQGTMVTVSS
VL: QAGLTQPPAVSVAPGQTASITCGRDNIGSRSVHWYQQKPGQAPVLVVYDDSDRPAGIPERFSGSNYENTATLTISRVEAGDEADYYCQVWGITSDHVVFGGGTKLTVLG
notes: Homodimerizing Fc; also called monospecific, bivalent eIg antibody; anti-HER3 bivalent eIg
- EC50 [5]: 1.4 nM

B7: Fv3-43-hetEHD2 eFab molecule 2 (C102W Fd; C14T,N39Q light chain) (Fab, V domains shown)
VH: QVQLQQSGPGLVKPSQTLSLTCAISGDSVSSNRAAWNWIRQSPSRGLEWLGRTYYRSKWYNDYAQSLKSRITINPDTPKNQFSLQLNSVTPEDTAVYYCARDGQLGLDALDIWGQGTMVTVSS
VL: QAGLTQPPAVSVAPGQTASITCGRDNIGSRSVHWYQQKPGQAPVLVVYDDSDRPAGIPERFSGSNYENTATLTISRVEAGDEADYYCQVWGITSDHVVFGGGTKLTVLD
notes: as for B5
- EC50 [7]: 7.3 nM

B8: Fv3-43-hetEHD2 eFab molecule 1 (C102A Fd; C14A,N39Q light chain) (Fab, V domains shown)
VH: QVQLQQSGPGLVKPSQTLSLTCAISGDSVSSNRAAWNWIRQSPSRGLEWLGRTYYRSKWYNDYAQSLKSRITINPDTPKNQFSLQLNSVTPEDTAVYYCARDGQLGLDALDIWGQGTMVTVSS
VL: QAGLTQPPAVSVAPGQTASITCGRDNIGSRSVHWYQQKPGQAPVLVVYDDSDRPAGIPERFSGSNYENTATLTISRVEAGDEADYYCQVWGITSDHVVFGGGTKLTVLD
notes: Monovalent anti-HER3 Fab-like molecule; His-tag on the Fd chain; also called C14A,N39Q:N39,C102A
- EC50 [7]: 12.1 nM

B9: Fv3-43-hetEHD2 eFab molecule 9 (C102S Fd; C14S,N39Q light chain) (Fab, V domains shown)
VH: QVQLQQSGPGLVKPSQTLSLTCAISGDSVSSNRAAWNWIRQSPSRGLEWLGRTYYRSKWYNDYAQSLKSRITINPDTPKNQFSLQLNSVTPEDTAVYYCARDGQLGLDALDIWGQGTMVTVSS
VL: QAGLTQPPAVSVAPGQTASITCGRDNIGSRSVHWYQQKPGQAPVLVVYDDSDRPAGIPERFSGSNYENTATLTISRVEAGDEADYYCQVWGITSDHVVFGGGTKLTVLD
notes: N-glycan only on the Fd EHD2-2 domain; also called originally used eFab (C14S,N39Q:N39,C102S)
- EC50 [7]: 3.7 nM

B10: Fv3-43-hetEHD2 eFab molecule 3 (C102N Fd; C14A,N39Q light chain) (Fab, V domains shown)
VH: QVQLQQSGPGLVKPSQTLSLTCAISGDSVSSNRAAWNWIRQSPSRGLEWLGRTYYRSKWYNDYAQSLKSRITINPDTPKNQFSLQLNSVTPEDTAVYYCARDGQLGLDALDIWGQGTMVTVSS
VL: QAGLTQPPAVSVAPGQTASITCGRDNIGSRSVHWYQQKPGQAPVLVVYDDSDRPAGIPERFSGSNYENTATLTISRVEAGDEADYYCQVWGITSDHVVFGGGTKLTVLD
notes: Monovalent anti-HER3 Fab-like molecule; His-tag on the Fd chain; also called C14A,N39Q:N39,C102N
- EC50 [7]: 4.8 nM

B11: Fv3-43-hetEHD2 eFab molecule 4 (C102T Fd; C14N,N39Q light chain) (Fab, V domains shown)
VH: QVQLQQSGPGLVKPSQTLSLTCAISGDSVSSNRAAWNWIRQSPSRGLEWLGRTYYRSKWYNDYAQSLKSRITINPDTPKNQFSLQLNSVTPEDTAVYYCARDGQLGLDALDIWGQGTMVTVSS
VL: QAGLTQPPAVSVAPGQTASITCGRDNIGSRSVHWYQQKPGQAPVLVVYDDSDRPAGIPERFSGSNYENTATLTISRVEAGDEADYYCQVWGITSDHVVFGGGTKLTVLD
notes: Monovalent anti-HER3 Fab-like molecule; His-tag on the Fd chain; also called C14N,N39Q:N39,C102T
- EC50 [7]: 3 nM

B12: Fv3-43-hetEHD2 eFab molecule 6 (C102N Fd; C14T,N39Q light chain) (Fab, V domains shown)
VH: QVQLQQSGPGLVKPSQTLSLTCAISGDSVSSNRAAWNWIRQSPSRGLEWLGRTYYRSKWYNDYAQSLKSRITINPDTPKNQFSLQLNSVTPEDTAVYYCARDGQLGLDALDIWGQGTMVTVSS
VL: QAGLTQPPAVSVAPGQTASITCGRDNIGSRSVHWYQQKPGQAPVLVVYDDSDRPAGIPERFSGSNYENTATLTISRVEAGDEADYYCQVWGITSDHVVFGGGTKLTVLD
notes: Monovalent anti-HER3 Fab-like molecule; His-tag on the Fd chain; also called C14T,N39Q:N39,C102N
- EC50 [7]: 4.1 nM

B13: Fv3-43-hetEHD2 eFab molecule 7 (C102T Fd; C14W,N39Q light chain) (Fab, V domains shown)
VH: QVQLQQSGPGLVKPSQTLSLTCAISGDSVSSNRAAWNWIRQSPSRGLEWLGRTYYRSKWYNDYAQSLKSRITINPDTPKNQFSLQLNSVTPEDTAVYYCARDGQLGLDALDIWGQGTMVTVSS
VL: QAGLTQPPAVSVAPGQTASITCGRDNIGSRSVHWYQQKPGQAPVLVVYDDSDRPAGIPERFSGSNYENTATLTISRVEAGDEADYYCQVWGITSDHVVFGGGTKLTVLD
notes: as for B5
- EC50 [7]: 7.1 nM

B14: Fv3-43-hetEHD2 eFab molecule 5 (C102A Fd; C14W,N39Q light chain) (Fab, V domains shown)
VH: QVQLQQSGPGLVKPSQTLSLTCAISGDSVSSNRAAWNWIRQSPSRGLEWLGRTYYRSKWYNDYAQSLKSRITINPDTPKNQFSLQLNSVTPEDTAVYYCARDGQLGLDALDIWGQGTMVTVSS
VL: QAGLTQPPAVSVAPGQTASITCGRDNIGSRSVHWYQQKPGQAPVLVVYDDSDRPAGIPERFSGSNYENTATLTISRVEAGDEADYYCQVWGITSDHVVFGGGTKLTVLD
notes: as for B5
- EC50 [7]: 11 nM
